Laboratory results from IntAct's records for PubMed 19955438.

B1: 1-phosphatidylinositol 4,5-bisphosphate phosphodiesterase gamma-1 (Bos taurus (Bovine)), P08487 (parent)
chain: MAGAASPCANGCGPSAPSDAEVVHLCRSLEVGTVMTLFYSKKSQRPERKTFQVKLETRQITWSRGADKIEGAIDIREIKEIRPGKTSRDFDRYQEDPAFRPDQSHCFVILYGMEFRLKTLSLQATSEDEVNMWIRGLTWLMEDTLQAATPLQIERWLRKQFYSVDRNREDRISAKDLKNMLSQVNYRVPNMRFLRERLTDLEQRTSDITYGQFAQLYRSLMYSAQKTMDLPFLEASALRAGERPELCRVSLPEFQQFLLEYQGELWAVDRLQVQEFMLSFLRDPLREIEEPYFFLDEFVTFLFSKENSIWNSQLDEVCPDTMNNPLSHYWISSSHNTYLTGDQFSSESSLEAYARCLRMGCRCIELDCWDGPDGMPVIYHGHTLTTKIKFSDVLHTIKEHAFVASEYPVILSIEDHCSIAQQRNMAQYFKKVLGDTLLTKPVDIAADGLPSPNQLKRKILIKHKKLAEGSAYEEVPTSVMYSENDISNSIKNGILYLEDPVNHEWYPHYFVLTSSKIYYSEETSSDQGNEDEEEPKEASGSTELHSNEKWFHGKLGAGRDGRHIAERLLTEYCIETGAPDGSFLVRESETFVGDYTLSFWRNGKVQHCRIHSRQDAGTPKFFLTDNLVFDSLYDLITHYQQVPLRCNEFEMRLSEPVPQTNAHESKEWYHASLTRAQAEHMLMRVPRDGAFLVRKRNEPNSYAISFRAEGKIKHCRVQQEGQTVMLGNSEFDSLVDLISYYEKHPLYRKMKLRYPINEEALEKIGTAEPDYGALYEGRNPGFYVEANPMPTFKCAVKALFDYKAQREDELTFTKSAIIQNVEKQEGGWWRGDYGGKKQLWFPSNYVEEMVSPAALEPEREHLDENSPLGDLLRGVLDVPACQIAVRPEGKNNRLFVFSISMASVAHWSLDVAADSQEELQDWVKKIREVAQTADARLTEGKMMERRKKIALELSELVVYCRPVPFDEEKIGTERACYRDMSSFPETKAEKYVNKAKGKKFLQYNRLQLSRIYPKGQRLDSSNYDPLPMWICGSQLVALNFQTPDKPMQMNQALFLAGGHCGYVLQPSVMRDEAFDPFDKSSLRGLEPCAICIEVLGARHLPKNGRGIVCPFVEIEVAGAEYDSIKQKTEFVVDNGLNPVWPAKPFHFQISNPEFAFLRFVVYEEDMFSDQNFLAQATFPVKGLKTGYRAVPLKNNYSEGLELASLLVKIDVFPAKQENGDLSPFGGASLRERSCDASGPLFHGRAREGSFEARYQQPFEDFRISQEHLADHFDGRDRRTPRRTRVNGDNRL

Variants of: B1
Details: with itk_mouse Itk

effect of a mutation on the interaction	Variant
disrupting interaction	E709A;K711A
decreasing interaction	K749A;R753A
decreasing interaction	R748A;K751A
